The values below come from a protein production outcome set (Wang et al. 2014).

This series can be described thus: label from the status in PepcDB records.
As to “MIKKFKNYDQIIKELFVIAIPTAFESLLFQMVTFFDNFMISYLGSFHVTGVSLANRVTFLFFIIVFGLGTALSAYVSQAIAKKKFLQVRQSFAYILLIGTTIGIIFFIFSFLFPRNIIKLFTANQDSLNFGSEYLKIISLSYVLMAYSFLSAMGFKSAKEVKIPLYVTSIVVLINIVFNYILIFGFSMGIKGAAYATVLARIVEFVFYFLYSLISSNSYYRIKFGDFFAPKVVTRANLKLIIPVLSHEIFWVLSITILHAFYARVGSIEYASFAVASNLFDICFVLLHGMGLATGVVIGHLMIYDKKHVRSVGFFLSFLGFLLGIFVVILLIGISSFAPYIFSKLDSPELVSVFIYVFASIVIFKAFTAQVLVGVFRASGIPNVCFFIESGVIVFYTLPVAYLLVFYTNLSLPIVVFIVNLEEIIKNIFIIIEFFHDDWIREIEYEELA”, the protein production entry is given as “failed”. Consider “MSLNIEEWEEYRYVEAGIKESITLIEDPGLKKMVEHVCHSGGKRIRPIILLLVSEICSGSYSRSLNAALAVEMMHSASLIHDDLLDQGLVRRNLPSAPEKFGPSGALLCGDYLIAKSIAFISPYGEKVIQDFGKAGMDMAEGEVLDLKLEDESFGENDYFKCIYKKTASLFAISASIGAYTGGAEEELAERFSHFGNALGTAYQIVDDILEFLEVVEGKESKFTSETLPHIYMKSTSKEEALKKSIDCVKLHVAAAKETLETFRECPARDKLFQITDYITVDMLENLEGHHHHHH”, for which the protein production result is given as “not failed”. Consider “MAQLSARAREDPAAVVDCLPELRQELATLDPRPREHAAEVVATIAHHYPEAARTAVDDIRPLLSDANPGVRAEAARALAEVATTFPDAVYPSVCDLLDRLTDDHYESRVNAAWALAELATEQPAGLRPAVEALCGVLTDDVAAVRAGGVWALAELAEEYPEPVRNAVPALRRLLDDDATLVRVHAARALAVLAETHPDAVEPARVDLEAFGNGEPEDLRKAVTFALAQLDEQTTEAKATSTAGATIDDPLPEEEWIFGGSDTETTATSSGLSAGGIPETVPDVPTPDLSYDDLKKQTTVENGDLSAVYRAAASTENGTVPVALKELRPSDGATLDSDLAHEAYTEARRWEGLDDHDHIVTLVDYGREPTVWFAMEYMDAGHLAEVADSLAFEHRLWSALVLTRAIRRAHRAGILHLNLKPENVLFRTVDDGWAVPKISDWGMEIQPHQDDHDVVPRYAAPEQLADDGRTDGVTDVYQLGRAFYQLFTGRPAFETTPECPADIVEAEPPAPSDIASVPAAVGDIIRTAMAPSQPDRYGAVVYLQEELETICADHGVPTT”, for which the protein production result is listed as “failed”. The value for “MLRGCGKLKKNLPCSVHTETPIVLKTTARFLLGLSLVLLSSSVATAQVVLPRTLELNAKEMEQNGFVVAQEALQLAQFQQFEDALVRAKLAVQLAPRAHEIWALLGGLYLTVNQPKDAVPALEQSLKLNDKNPGAYFNLGSAHFRLGRYDAAARAIEQGLALKPNATEEWFNLGNAYLKLGQKDRAIEQYRRSLRLDRRFWPAYTNIGLVLYEQGHIRQAVKNWEQAADIDPKASEPKLALATALLQLGNEARALQLAEEALRLDSRYGTVEFQRENLWGDRLVADTQILLAKPPLRALMSQLQPEQSALPQP” was “failed”; that for “MRLEKFIHLLGERGFDGALISPGTNLYYLTGLRLHEVGERLAILAVSAEGDYRFLAPSLYENVVNNFPATFWHDGENPYAKLREILEELGISKGRILIEDTMRADWLIGIMKLGKFTFQPLSSLIKELRMIKDKEEVKMMEHASRIADKVFEEILTWDLIGMKERELALKIELLIRELSDGIAFEPIVASGENAANPHHEPGERKIRKGDIIILDYGARWKGYCSDITRTIGLGELDERLVKIYEVVKDAQESAFKAVREGIKAKDVDSRAREVISKAGYGEYFIHRTGHGLGLDVHEEPYIGPDGEVILKNGMTFTIEPGIYVPGLGGVRIEDDIVVDEGKGRRLTKAERELIIL” was “not failed”. “MRTDDSALKNLGKGRESTTLEMKHRELCSGKTIDLGKKMRRALVLDNIRVQSLQLKIKAMTSSTTEQSVSETQIPLTSGIKLESLNYIVTVELGGKNMSLIVDTGSDLTWVQCQPCRSCYNQQGPLYDPSVSSSYKTVFCNSSTCQDLVAATSNSGPCGGNNGVVKTPCEYVVSYGDGSYTRGDLASESILLGDTKLENFVFGCGRNNKGLFGGSSGLMGLGRSSVSLVSQTLKTFNGVFSYCLPSLEDGASGSLSFGNDSSVYTNSTSVSYTPLVQNPQLRSFYILNLTGASIGGVELKSSSFGRGILIDSGTVITRLPPSIYKAVKIEFLKQFSGFPTAPGYSILDTCFNLTSYEDISIPIIKMIFQGNAELEVDVTGVFYFVKPDASLVCLALASLSYENEVGIIGNYQQKNQRVIYDTTQERLGIVGENCRV”: the protein production entry is “failed”.

Take “MSLHVTADAPGAAQGGYSVVTFRVPTESETAATTAMTVTLPNVRSARTEPMPGWTARVDRNDKSEAVSVTWTADPGNPGVQPGQFQRFVVSIGPLPSAETVSFPAEQTYSDGRVVAWNQPPAADGSEPEHPAPTLTLATAPGDTEGHHHHHH”: the protein production result is reported as “not failed”.

For the sequence “MAHHHHHHMGGPPTIEELKREKIIPHVFPDENVDLTVDMYISFKSGKEVNHGNILDLAGTGSVPRNIKFSEEPPEDYCYILFMIDPDFPSRRRPDGRDYVHWAVSGIKSKELVKGTDKNCITLLPYVGPSIKKGTGLHRISFILSLVKEENKGNVTGVPLYRGEHYITRVKFNNCQSAYNVIQMNDMKIVGFNWCQIEA”, the protein production entry is given as “not failed”. For the sequence “MASQITGSFTSLTKLITAGSYLAGLGFSIGAIMKFKQHKDNPTQIPIGTPIALIFIAAALLFLPSILGVAGVTMFGGSGGKTAGPTGTIYKTN”, the protein production result is recorded as “failed”. The same measure for “MESDSEMVPFPQLPMPIENNYRACTIPYRFPSDDPKKATPNEISWINVFANSIPSFKKRAESDITVPDAPARAEKFAERYAGILEDLKKDPESHGGPPDGILLCRLREQVLRELGFRDIFKKVKDEENAKAISLFPQVVSLSDAIEDDGKRLENLVRGIFAGNIFDLAVKTWFHDHGSLMTWKTSKPNGSISLGRRSLICFALPFNASFRLQCLFSELKYTLNCSSSSSFPFKVVLAANELPSINDITCTELTEILSQLKDENGQLLGVDTSKLLIANSGNDLPVIDLSRVSQELAYLSSDADLVIVEGMGRGIETNLYAQFKCDSLKIGMVKHLEVAEFLGGRLYDCVFKFNEVQS”: “not failed”; for “CAAIAALSAVGLPSDRFSFEGFLPSKSSQRLLQLEKLKDETQTLIFYEAPHRILDCVTDMMHIFGEDRPVGFAREITKTFETIKKMTLKELVSFIQNDHHQQKGEIVLIVGGNPVNK”: “failed”. For the sequence “MFTGFNWQQMISAFIVLFAVIDIIGSIPIIINLKEKGKDVNATKATVISFALLIGFFYAGDMMLKLFHVDIESFAVAGAFVIFLMSLEMILDIEIFKNQGPIKEATLVPLVFPLLAGAGAFTTLLSLRAEYASVNIIIALILNMLWVYFVVSMTGRVERFLGKGGIYIIRKFFGIILLAISVRLFTANITLLIEALHKS”, the protein production entry is “failed”.

As to “MCYHLIIDSFIDRISRMHTQRGLEVTTGSIEAVDSINYFHEQVLSSGQNAIQILDSAKKHTDNLLIQTYAAAFYLYAQEDVANEQASDYLQSAFRLLTSANEREKLIFEAVTNWSKRDYANAISLLVTLLERYPRDTLALKFMEWLFYCTGQAFNAEYFLKVCDKCAPENQDESHFLAIHSFALELCGQYSKAKEMAEEAITMNLLTPWAHHTLAHVHLLTSDITGGINRLRDLQKTWEDILPLLKGHNTWHLALFYLANRNEEEVKKLYPHISGALPDTVLEQLDTISLLWRMDMAGLPQDRLLNQVVDHLSTHPLEYYTGFTNAHFIYCLVKSGYKNEADESLKRMKFYACSPSSDALWGDVVLPLCQGIYAFADADYKTALMLMEPVIGECAQLGGSDAQIELFFQTYLLVLIHNKQKDKALQFFTEHLKYYNNTPLSDWWFQSANKA”, the protein production entry is listed as “failed”. On to “NANDQAIAYVMLGNKAQTVLNGNLKVDFMETENSSSVKKQKALVAKVSQREEMVKKCLGELTEVCKSLGKVFGVHYFNIFNTVTLKKLAESLSSDPEVLLQIDGVTEDKLEKYGAEVISVLQKYSEWTSPAED”, for which the protein production result is listed as “failed”. Regarding “MNGYIINIRYQQMGRVIYMFFFAIFGIQDKNKHIGNCNNIVCPSCGRLSMYEVYKYYKYFHIFFLPIFKWDVRYIVKTSCCGCLYELDPLVGKEFEKNPSTEIREENLQRIDRYSPFKYCSNCRTEVPVEYSYCPYCGERLLEHHHHHH”, the protein production entry is given as “failed”. As to “MDSGFTLRAPRNDKRRNPMPAILGTGEHRYRVVENFAKLPDGWQLTDVAAVAVDSLDRVYVFNRGAHPMVVLDREGNFLRSWGEGLFSRAHGLHIDADDNLYCTDDGDHTVRKCTSDGKVLLTIGIPAKPAPFMSGEPFHRCTHTALSPKGEIYVSDGYGNARVHKFTPDGKLIKSWGEPGTDPGQFNIVHNIATDSDGWVYVADRENHRVQVFNGEGKYETQWNNLHRPCALCCCGGRSPTFVIGELGPGLDINRNVPNLGPRLSIVDAKGNRIARLGGEEGPGVASGKFLAPHGIALDSKGDIYVGEVGVTNWATSFPDQEMPAVVRATRCLQKLERVRE”, the protein production entry is given as “failed”.
